Holding throughout (conditions): both partners purified
In one test the target is T1, PP1α_(7-330) Y134A (UniProt P62136 7-330, Y134A).
T1 construct: Protein phosphatase 1 alpha catalytic subunit (PP1α), residues 7-330; also called PP1_(Y134A); PP1_(7-330) Y134A
Nature of the test: SPR; His6-PP1 constructs or SDS22_(56-360):PP1α_(7-330) captured on a Ni-NTA chip (NiHC200M), I3 and variants injected; 25 °C; 20 mM Tris pH 8.0, 500 mM NaCl, 0.5 mM TCEP, 0.05% Tween-20; one-to-one one-state or two-state fit. (In general: In SPR one partner is held on a chip, and binding of the other changes the refractive index at the surface.)

For the next test, the target named is T2, PP1α_(7-330) R96A (UniProt P62136 7-330, R96A).
T2 construct: Protein phosphatase 1 alpha catalytic subunit (PP1α), residues 7-330; also called PP1_(R96A); PP1_(7-330) R96A
T2 sequence (P62136 7-330 R96A): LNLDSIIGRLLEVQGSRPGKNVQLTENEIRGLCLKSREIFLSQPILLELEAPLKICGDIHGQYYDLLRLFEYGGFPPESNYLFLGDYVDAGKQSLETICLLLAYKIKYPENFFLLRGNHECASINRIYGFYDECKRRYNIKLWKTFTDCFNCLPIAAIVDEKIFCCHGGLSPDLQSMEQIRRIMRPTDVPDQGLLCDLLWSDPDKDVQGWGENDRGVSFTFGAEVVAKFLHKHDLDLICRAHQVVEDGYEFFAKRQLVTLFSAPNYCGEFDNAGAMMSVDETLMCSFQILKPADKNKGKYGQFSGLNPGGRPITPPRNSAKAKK
The test is described as above.

Test [1] concerns the target T3, SDS22_(56-360):PP1α_(7-330) complex (UniProt Q15435 56-360; P62136 7-330).
T3 construct: SDS22 (PPP1R7), residues 56-360; Protein phosphatase 1 alpha catalytic subunit (PP1α), residues 7-330; PP1 in this complex lacks the M1 metal; The same complex treated with EDTA (M2 metal extracted) is kept as this molecule and told apart by assay a4; the His6 tag of SDS22 was cleaved, so it is probably His6-PP1; also called SDS22:PP1; SDS22:PP1_(M2-metal-free) / metal-free …
Described as above.

Another test deals with T4, PP1α_(7-330) R96A/H66K (UniProt P62136 7-330, R96A | H66K).
T4 construct: Protein phosphatase 1 alpha catalytic subunit (PP1α), residues 7-330; also called PP1_(7-330) R96A/H66K
T4 sequence (P62136 7-330 H66K/R96A): as the sequence (P62136 7-330 R96A) above, with H60K counted along it
The description is as above.

A further test concerns the target T5, PP1α_(7-330) Y134A/H66K (UniProt P62136 7-330, Y134A | H66K).
T5 construct: Protein phosphatase 1 alpha catalytic subunit (PP1α), residues 7-330; also called PP1_(7-330) Y134A/H66K
The test is described as above.

Test [2] concerns the target T3, SDS22_(56-360):PP1α_(7-330) complex. The experiment in a line: SPR; as a3, but SDS22_(56-360):PP1α_(7-330) treated with 3 mM EDTA beforehand and dialysed to extract the M2 metal (metal-free PP1); one-state fit.

We go through three molecules from paper PMC10776994, “The SDS22:PP1:I3 complex: SDS22 binding to PP1 loosens the active site metal to prime metal exchange” (The Journal of Biological Chemistry, 2023).

As usually defined, the Kd is a measure of binding affinity in units of concentration. A lower Kd goes with a tighter complex.

T3 sequence (Q15435 56-360, chain 1 of 2): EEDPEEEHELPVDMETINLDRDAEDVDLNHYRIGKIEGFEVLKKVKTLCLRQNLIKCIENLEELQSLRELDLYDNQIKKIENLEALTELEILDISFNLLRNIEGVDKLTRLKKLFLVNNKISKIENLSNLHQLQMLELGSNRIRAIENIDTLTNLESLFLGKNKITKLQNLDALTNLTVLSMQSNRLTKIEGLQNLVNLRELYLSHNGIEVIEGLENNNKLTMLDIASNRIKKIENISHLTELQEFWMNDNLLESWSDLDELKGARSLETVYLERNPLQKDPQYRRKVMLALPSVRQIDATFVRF
T3 sequence (P62136 7-330, chain 2 of 2): as the sequence (P62136 7-330 R96A) above, with A90R counted along it
T1 sequence (P62136 7-330 Y134A): as the sequence (P62136 7-330 R96A) above, with A90R, Y128A counted along it
T5 sequence (P62136 7-330 H66K/Y134A): as the sequence (P62136 7-330 R96A) above, with H60K, A90R, Y128A counted along it

B1: I3_(27-68) (domain or fragment, human, UniProt O60927 27-68, looked up)
chain: SLTIKLRKRKPEKKVEWTSDTVDNEHMGRRSSKCCCIYEKPR
notes: source: E. coli BL21 (DE3), purified (Ni-NTA, TEV, heat 95 °C, SEC); not shown: His6, N-terminal, cleaved; MBP, N-terminal, cleaved
In the case of B1, the Kd turned out to be 9 ± 2 nM in the test with PP1α_(7-330) Y134A; 12 ± 1 nM with PP1α_(7-330) R96A; 116 ± 12 nM in test [1]; 7 ± 1 nM with PP1α_(7-330) R96A/H66K; 12 ± 3 nM in the test with PP1α_(7-330) Y134A/H66K; 605 ± 32 nM in test [2].

B2: I3_(27-68) C60S/C61S/C62S (domain or fragment, human, UniProt O60927 27-68, looked up)
chain: SLTIKLRKRKPEKKVEWTSDTVDNEHMGRRSSKSSSIYEKPR
notes: also called I3_(27-68) SSS; SSS: I3_(27-68) CCC→SSS; source: E. coli BL21 (DE3), purified (Ni-NTA, TEV, heat 95 °C, SEC); not shown: His6, N-terminal, cleaved; MBP, N-terminal, cleaved
In turn, B2 came in with a Kd in test [1] of 429 ± 30 nM.

B3: I3_(27-59) (Δ60–68) (domain or fragment, human, UniProt O60927 27-59, looked up)
chain: SLTIKLRKRKPEKKVEWTSDTVDNEHMGRRSSK
notes: made by a stop codon in the I3 27-68 construct; lacks the CCC motif; also called I3_(ΔCCC); CCC_(deletion); source: E. coli BL21 (DE3), purified (Ni-NTA, TEV, heat 95 °C, SEC); not shown: His6, N-terminal, cleaved; MBP, N-terminal, cleaved
B3 displayed a Kd in test [1] of 396 ± 11 nM.
